Reference: paper doi:10.1101/2024.11.12.623303 (bioRxiv, 2024)

Biological target: T1, recombinant CD45RO-Fc protein (Catalog # 10642-CD, R&D systems) (UniProt P08575-4 26-416)
T1 sequence (looked up): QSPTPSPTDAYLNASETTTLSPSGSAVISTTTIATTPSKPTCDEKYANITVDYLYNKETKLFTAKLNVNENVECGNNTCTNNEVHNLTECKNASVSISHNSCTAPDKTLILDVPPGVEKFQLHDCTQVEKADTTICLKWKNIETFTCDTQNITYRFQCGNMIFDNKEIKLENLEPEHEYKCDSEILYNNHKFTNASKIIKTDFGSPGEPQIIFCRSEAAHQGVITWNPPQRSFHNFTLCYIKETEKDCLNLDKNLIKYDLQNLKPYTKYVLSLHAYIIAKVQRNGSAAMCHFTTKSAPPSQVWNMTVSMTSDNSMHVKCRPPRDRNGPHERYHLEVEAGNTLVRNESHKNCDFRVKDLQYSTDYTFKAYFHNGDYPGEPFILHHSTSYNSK
Experiment: MST

Kd: 63.5 nM
B1: BTN2A2-His tag protein (without Fc tag) (domain or fragment, human, UniProt Q8WVV5 33-237, looked up)
chain: QFTVVGPANPILAMVGENTTLRCHLSPEKNAEDMEVRWFRSQFSPAVFVYKGGRERTEEQMEEYRGRITFVSKDINRGSVALVIHNVTAQENGIYRCYFQEGRSYDEAILRLVVAGLGSKPLIEIKAQEDGSIWLECISGGWYPEPLTVWRDPYGEVVPALKEVSIADADGLFMVTTAVIIRDKYVRNVSCSVNNTLLGQEKETV
modifications: fluorescently labeled by covalent labeling (Monolith protein labeling kit RED-NHS 2nd generation, amine reactive)
